From patent WO2010106812A1 (dated 2010)
Changes are numbered by the printed parent chain. One block for each binder: values may come before it.

Target: T1, soluble human FcRn (human, UniProt P55899 24-290; P61769 21-119)
T1 construct: Complex of FcRn and beta 2-microglobulin; the secreted protein lacks them
Assay: Biacore, human FcRn

fold binding against TOCILIZUMAB-IgG1: ~1.4 times
B1: TOCILIZUMAB-M58 (antibody, IgG2)
heavy: QVQLQESGPGLVRPSQTLSLTCTVSGYSITSDHAWSWVRQPPGRGLEWIGYISYSGITTYNPSLKSRVTMLRDTSKNQFSLRLSSVTAADTAVYYCARSLARTTAMDYWGQGSLVTVSSASTKGPSVFPLAPSSKSTSGGTAALGCLVKDYFPEPVTVSWNSGALTSGVHTFPAVLQSSGLYSLSSVVTVPSSNFGTQTYTCNVDHKPSNTKVDKTVERKSCVECPPCPAPPVAGPSVFLFPPKPKDTLMISRTPEVTCVVVDVSQEDPEVQFNWYVDGVEVHNAKTKPREEQFNSTFRVVSVLTVVHQDWLNGKEYKCKVSNKGLPAPIEKTISKTKGQPREPQVYTLPPSQEEMTKNQVSLTCLVKGFYPSDIAVEWESNGQPENNYKTTPPMLDSDGSFFLYSKLTVDKSRWQEGNVFSCSVMHEALHNHYTQKSLSLSP
light: not shown
notes: IgG2-derived constant region (WT-SKSC with further changes, Gly446 and Lys447 deleted); also called WT-M58/WT-kappa

fold binding against TOCILIZUMAB-IgG1: ~3.8 times
B2: TOCILIZUMAB-M73 (antibody)
heavy: B1 heavy with N432A
light: not shown
notes: WT-M58 with asparagine 434 (EU) changed to alanine; also called WT-M73/WT-kappa
